We go through nine molecules from patent US20160002331A1 (Pfizer, published 2016).

For assay [1], the target named is T1, full-length human Notch1 expressed on the cell surface (human, UniProt P46531 19-2555). In words: cell-based or functional assay.
Assay [2] addresses T2, human Notch1 NRR_Avi_His recombinant protein (human, UniProt P46531 1434-1737).
T2 construct: Secreted from CHO-PACE cells; cleaved at S1 into an N-terminal ~26 kDa half (LNR-A, B, C, HD1) and a C-terminal ~12 kDa half (HD2 and tag) that stay associated non-covalently; written here as one chain; also called recombinant human Notch1 NRR; human Notch1 NRR immunogen
T2 sequence: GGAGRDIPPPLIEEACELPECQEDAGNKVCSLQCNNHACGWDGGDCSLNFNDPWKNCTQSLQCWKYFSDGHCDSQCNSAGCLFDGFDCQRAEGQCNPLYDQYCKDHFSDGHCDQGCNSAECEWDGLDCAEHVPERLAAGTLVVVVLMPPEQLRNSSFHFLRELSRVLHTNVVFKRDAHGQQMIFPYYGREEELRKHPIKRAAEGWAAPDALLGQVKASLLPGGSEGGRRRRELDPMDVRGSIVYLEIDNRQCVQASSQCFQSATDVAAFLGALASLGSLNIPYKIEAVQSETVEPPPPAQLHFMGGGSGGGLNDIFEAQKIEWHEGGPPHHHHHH
In words: SPR (Biacore T100), ratio of KD to that of rat 438-hIgG1. As to the method:
(§1) The kinetic constants of the anti-Notch1 NRR interactions were determined by surface plasmon resonance (Biacore® T100, Biacore Inc., Piscataway, N.J.). Flow cells of a CM5 chip were immobilized with approximately 10,000 Resonance Unit (RU) of anti-human IgG-Fc (Biacore®) in 10 mM Glycine, pH 5.0 at 10 μl/min for 600 seconds. […] Association of four concentrations of human Notch1 NRR_Avi_His recombinant protein (from 3.7-100 nM) and a zero concentration (running buffer) at 100 μl/min were recorded for 3 minutes in TBS with 1 mM CaCl₂. Dissociation of the complexes was measured for 10 minutes. The surface of the chip was regenerated by injecting 3M MgCl₂ with 3 mM EGTA for 60 seconds at 10 μl/min. Curves obtained after subtraction of the reference and buffer signals were fitted to a 1:1 Langmuir binding model with Biacore® T100 Evaluation Software (Biacore®).
(SPR reads the build-up and loss of mass on a sensor chip optically.)

Assay [3] concerns the target T2, human Notch1 NRR_Avi_His recombinant …. In words: competition ELISA on coated human Notch1 NRR_Avi_His; competitor 0.8 nM biotinylated rat 438. As to the method: (§2) In a similar manner as described for recombinant protein or cell based ELISAs, 96 well cell culture plates were either coated with Notch1 NRR-Avi_His protein (hi-bound co-Star plates), or seeded with full length Notch1 expressing U-2 OS cells (cell culture plate, Co-star), respectively.
(§3) After incubation for 2 hours, the plates were washed, as described above, and HRP-conjugated streptavidin (Southern Biotech) diluted 1:5000 in blocking buffer was applied. Incubation with streptavidin was allowed for 30 min before the plates were washed again and developed with TMB solution for 10 minutes. Developing reaction was stopped by adding 0.18M H₂SO₄ and absorbance at 450 nm was measured. Data plotting and analyses were performed with Microsoft Excel and Graphpad-Prizm software.
(In general: ELISA stands for enzyme-linked immunosorbent assay.)

For assay [4], the target named is T1, full-length human Notch1 expressed on …. Briefly: cell-based or functional assay. The source holds these as a separate data set.
The target of assay [5] is T2, human Notch1 NRR_Avi_His recombinant …. Briefly: SPR (Biacore T100), antibody captured by anti-human IgG-Fc, NRR_Avi_His as analyte, 1:1 Langmuir model. As to the method:
as §1

Assay [6] concerns the target T1, full-length human Notch1 expressed on …. In words: competition ELISA on U-2 OS cells expressing full-length human Notch1; competitor 0.8 nM biotinylated rat 438. As to the method:
as §2, §3

Assay [7] shares this target. In words: cell-based ELISA, U-2 OS cells expressing full-length human Notch1. As for the experimental part:
(§4) Supernatants from clones displaying positive binding to immunogens in recombinant Notch1 NRR based ELISAs described above were then screened for cell surface Notch1 binding in a cell-based ELISA. U-2 OS cells stably overexpressing human or mouse full length Notch1 protein on cell surface were plated at 50,000 cells/well in 96 well plates (white opaque, BD/VWR) the day before ELISA assay. On the day of the ELISA, culture media were removed from wells and serially diluted (1:3 in blocking buffer) antibody solutions or hybridoma culture supernatants were applied to the plate. Plates were incubated at room temperature for 2 hours before being washed with PBS-Mg/Ca. HRP-conjugated secondary antibody was then applied and incubated with cells for 1 hour as described above for recombinant protein ELISA. Plates were washed with PBS-Mg/Ca before being developed with Pico-Chemiluminescent developing kit (Thermal Scientific), and chemiluminescence measurements were performed per manufacturer's instructions. Data plotting and analyses were performed with Microsoft Excel and Graphpad-Prizm software.

Assay [8] has as its target T3, full-length mouse Notch1 expressed on the cell surface of U-2 OS cells (mouse, UniProt Q01705 19-2531).
T3 construct: whole, on cells; also called murine Notch1
In words: cell-based ELISA, U-2 OS cells expressing full-length mouse Notch1. As for the experimental part:
as §4

For assay [9], the target named is T3, full-length mouse Notch1 expressed on …. Briefly: cell-based or functional assay.

“And” between values parts separate entries of the source, which are not always exact repeats. Identical values can stand only once.

T1 sequence (P46531 19-2555): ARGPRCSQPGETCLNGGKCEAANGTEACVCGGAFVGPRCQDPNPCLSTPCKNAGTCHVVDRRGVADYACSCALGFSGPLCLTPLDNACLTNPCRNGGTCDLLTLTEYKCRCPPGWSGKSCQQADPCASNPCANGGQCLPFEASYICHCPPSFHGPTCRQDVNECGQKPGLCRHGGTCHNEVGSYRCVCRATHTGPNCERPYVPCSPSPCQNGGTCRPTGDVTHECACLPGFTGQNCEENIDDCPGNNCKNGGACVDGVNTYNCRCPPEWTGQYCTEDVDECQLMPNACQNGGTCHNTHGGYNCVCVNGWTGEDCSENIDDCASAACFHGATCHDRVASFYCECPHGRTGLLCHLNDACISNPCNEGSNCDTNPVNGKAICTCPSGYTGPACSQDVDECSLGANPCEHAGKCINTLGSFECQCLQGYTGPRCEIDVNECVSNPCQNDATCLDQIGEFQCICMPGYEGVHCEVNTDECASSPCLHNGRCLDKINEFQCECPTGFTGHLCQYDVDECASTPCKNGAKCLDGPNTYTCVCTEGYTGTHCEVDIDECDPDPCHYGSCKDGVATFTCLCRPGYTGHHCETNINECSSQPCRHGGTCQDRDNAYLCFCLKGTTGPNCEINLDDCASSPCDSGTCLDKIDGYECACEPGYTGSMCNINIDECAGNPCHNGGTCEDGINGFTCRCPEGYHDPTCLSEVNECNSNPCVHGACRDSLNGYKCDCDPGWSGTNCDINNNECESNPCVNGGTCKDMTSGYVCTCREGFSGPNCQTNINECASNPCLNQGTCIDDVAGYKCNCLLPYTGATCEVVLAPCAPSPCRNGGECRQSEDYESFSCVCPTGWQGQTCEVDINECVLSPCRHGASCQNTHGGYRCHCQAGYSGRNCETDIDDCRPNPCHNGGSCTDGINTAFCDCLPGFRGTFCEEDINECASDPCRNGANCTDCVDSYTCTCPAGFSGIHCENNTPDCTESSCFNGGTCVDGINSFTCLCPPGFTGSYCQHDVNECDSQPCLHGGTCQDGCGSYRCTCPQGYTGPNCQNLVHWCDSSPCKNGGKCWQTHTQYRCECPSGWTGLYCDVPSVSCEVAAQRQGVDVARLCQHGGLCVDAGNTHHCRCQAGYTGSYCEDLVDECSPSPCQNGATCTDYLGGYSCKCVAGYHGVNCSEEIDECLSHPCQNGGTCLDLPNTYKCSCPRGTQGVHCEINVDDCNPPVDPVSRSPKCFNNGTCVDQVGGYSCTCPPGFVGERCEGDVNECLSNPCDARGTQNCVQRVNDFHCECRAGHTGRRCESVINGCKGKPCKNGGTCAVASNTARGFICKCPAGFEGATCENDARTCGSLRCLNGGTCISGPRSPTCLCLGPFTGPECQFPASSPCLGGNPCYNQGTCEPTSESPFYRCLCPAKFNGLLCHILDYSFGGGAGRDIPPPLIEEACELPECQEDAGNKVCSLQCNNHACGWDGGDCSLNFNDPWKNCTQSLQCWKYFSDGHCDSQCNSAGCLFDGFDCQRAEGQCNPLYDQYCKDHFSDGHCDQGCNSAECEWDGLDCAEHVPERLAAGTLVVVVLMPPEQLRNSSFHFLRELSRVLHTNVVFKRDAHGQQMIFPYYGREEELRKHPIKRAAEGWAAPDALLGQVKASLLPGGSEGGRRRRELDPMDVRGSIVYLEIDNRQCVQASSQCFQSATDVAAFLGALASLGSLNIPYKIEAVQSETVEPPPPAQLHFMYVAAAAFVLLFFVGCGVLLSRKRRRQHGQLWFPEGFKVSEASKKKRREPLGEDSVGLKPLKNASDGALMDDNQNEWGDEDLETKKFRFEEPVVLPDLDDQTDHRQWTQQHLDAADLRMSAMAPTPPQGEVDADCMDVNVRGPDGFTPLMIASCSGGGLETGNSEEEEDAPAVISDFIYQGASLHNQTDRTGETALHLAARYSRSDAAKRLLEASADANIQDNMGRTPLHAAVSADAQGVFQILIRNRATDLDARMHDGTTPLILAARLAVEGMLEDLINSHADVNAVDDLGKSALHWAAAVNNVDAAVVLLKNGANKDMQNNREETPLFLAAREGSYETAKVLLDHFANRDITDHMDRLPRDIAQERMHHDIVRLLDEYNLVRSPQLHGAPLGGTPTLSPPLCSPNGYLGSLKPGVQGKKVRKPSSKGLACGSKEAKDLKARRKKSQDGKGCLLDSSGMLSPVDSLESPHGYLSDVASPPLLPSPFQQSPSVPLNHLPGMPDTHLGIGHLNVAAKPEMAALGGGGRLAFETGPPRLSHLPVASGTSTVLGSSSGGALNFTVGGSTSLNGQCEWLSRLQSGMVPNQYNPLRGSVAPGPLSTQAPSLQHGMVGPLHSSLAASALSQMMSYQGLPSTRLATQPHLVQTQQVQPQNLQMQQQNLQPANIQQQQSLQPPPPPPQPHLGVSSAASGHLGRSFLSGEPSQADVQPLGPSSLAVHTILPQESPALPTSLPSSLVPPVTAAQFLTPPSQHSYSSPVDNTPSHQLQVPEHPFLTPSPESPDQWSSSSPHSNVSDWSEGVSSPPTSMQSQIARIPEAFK
T3 sequence (Q01705 19-2531): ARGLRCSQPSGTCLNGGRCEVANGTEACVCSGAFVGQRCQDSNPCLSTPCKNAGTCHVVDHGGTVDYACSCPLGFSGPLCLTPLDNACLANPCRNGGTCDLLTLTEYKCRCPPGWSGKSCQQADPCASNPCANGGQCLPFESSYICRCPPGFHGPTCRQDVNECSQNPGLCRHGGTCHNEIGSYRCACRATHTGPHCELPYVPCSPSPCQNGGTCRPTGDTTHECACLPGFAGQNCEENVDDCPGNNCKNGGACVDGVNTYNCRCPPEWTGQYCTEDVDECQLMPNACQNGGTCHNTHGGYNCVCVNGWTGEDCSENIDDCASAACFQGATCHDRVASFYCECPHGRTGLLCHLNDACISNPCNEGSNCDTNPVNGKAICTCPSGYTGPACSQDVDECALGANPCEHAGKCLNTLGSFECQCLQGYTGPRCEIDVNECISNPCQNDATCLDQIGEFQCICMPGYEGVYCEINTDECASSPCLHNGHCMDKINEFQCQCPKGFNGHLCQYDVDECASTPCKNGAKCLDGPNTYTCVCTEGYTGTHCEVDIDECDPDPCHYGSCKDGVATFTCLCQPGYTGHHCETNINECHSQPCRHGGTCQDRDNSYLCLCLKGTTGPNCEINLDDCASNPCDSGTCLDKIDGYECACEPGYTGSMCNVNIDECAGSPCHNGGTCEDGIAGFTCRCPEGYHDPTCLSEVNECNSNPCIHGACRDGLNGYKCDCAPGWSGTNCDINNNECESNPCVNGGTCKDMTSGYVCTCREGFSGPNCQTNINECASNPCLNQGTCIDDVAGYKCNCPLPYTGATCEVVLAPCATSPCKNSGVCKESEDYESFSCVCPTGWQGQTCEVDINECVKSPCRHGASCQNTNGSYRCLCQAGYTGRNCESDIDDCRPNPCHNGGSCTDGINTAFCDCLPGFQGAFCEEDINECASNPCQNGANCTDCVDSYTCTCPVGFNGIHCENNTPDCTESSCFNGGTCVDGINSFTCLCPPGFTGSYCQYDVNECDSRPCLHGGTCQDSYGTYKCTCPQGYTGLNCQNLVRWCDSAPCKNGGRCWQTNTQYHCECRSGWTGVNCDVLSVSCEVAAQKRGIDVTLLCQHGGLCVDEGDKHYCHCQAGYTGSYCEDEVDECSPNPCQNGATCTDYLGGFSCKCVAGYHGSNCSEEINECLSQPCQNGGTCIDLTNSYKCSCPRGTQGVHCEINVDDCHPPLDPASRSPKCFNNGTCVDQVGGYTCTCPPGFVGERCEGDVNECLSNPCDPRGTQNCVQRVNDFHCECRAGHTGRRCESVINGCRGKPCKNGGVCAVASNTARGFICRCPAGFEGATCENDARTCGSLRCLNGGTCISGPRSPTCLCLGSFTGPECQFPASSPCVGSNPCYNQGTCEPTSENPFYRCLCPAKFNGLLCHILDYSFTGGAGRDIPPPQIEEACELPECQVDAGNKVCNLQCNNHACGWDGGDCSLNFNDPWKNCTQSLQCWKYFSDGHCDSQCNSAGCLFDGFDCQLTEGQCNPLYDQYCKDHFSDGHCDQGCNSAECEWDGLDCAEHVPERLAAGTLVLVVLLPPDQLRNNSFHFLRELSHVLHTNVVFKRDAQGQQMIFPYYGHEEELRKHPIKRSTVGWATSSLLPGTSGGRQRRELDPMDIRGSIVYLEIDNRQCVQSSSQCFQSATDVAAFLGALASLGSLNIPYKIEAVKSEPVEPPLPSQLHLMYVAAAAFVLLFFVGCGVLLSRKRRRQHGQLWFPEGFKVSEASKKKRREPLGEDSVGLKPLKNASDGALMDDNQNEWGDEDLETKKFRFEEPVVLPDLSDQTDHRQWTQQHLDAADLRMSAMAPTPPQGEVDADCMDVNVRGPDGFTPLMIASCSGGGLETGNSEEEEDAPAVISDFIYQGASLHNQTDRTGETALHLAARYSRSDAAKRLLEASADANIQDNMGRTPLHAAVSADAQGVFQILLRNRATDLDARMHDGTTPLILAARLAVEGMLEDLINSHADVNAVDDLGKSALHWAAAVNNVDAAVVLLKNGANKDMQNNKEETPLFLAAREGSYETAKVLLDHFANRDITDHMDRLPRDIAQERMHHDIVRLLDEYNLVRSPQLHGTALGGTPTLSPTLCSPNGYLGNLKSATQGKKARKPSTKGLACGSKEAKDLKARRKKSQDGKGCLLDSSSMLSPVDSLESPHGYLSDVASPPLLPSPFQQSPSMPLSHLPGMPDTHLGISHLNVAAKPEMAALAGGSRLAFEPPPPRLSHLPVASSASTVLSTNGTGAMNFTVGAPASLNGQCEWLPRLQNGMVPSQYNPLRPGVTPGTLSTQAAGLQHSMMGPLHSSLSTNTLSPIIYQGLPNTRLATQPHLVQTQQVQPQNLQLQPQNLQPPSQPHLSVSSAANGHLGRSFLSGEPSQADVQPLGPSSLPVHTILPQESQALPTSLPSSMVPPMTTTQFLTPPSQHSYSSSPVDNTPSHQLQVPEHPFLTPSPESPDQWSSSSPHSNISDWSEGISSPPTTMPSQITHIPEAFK

B1: rat 351(R58Y/V60R)-mIgG1 (antibody, V domains shown)
VH: EVQLVESGGGLVQPGRSLKVSCLASGFTFSHYGMNWIRQAPGKGLDWVASISRSGSYIYYRDTVKGRFTVSRDIAKNTLYLQMTSLRSEDTALYYCAREGQFGDYFEYWGQGVMVTVSS
VL: DIMLTQSPATLSVTPGERISLSCRASQKISTNLHWYQQKPNESPRILIKYASQTISGIPSRFSGSGSGTDFTLHINTVEPEDFSVYYCQQTNSWPLTFGSGTKLEIK
In the case of B1, in assay [1], the “IC50, Notch1 signaling inhibition co-culture reporter assay” value was determined as 110 pM and the “Maximal Inhibition (%), Notch1 signaling inhibition co-culture reporter assay” value was 95.3%.

B2: rat 438-hIgG1 (antibody, V domains shown)
VH: AVQLVESGGGLVQPGRSLKLSCTASGFTFSSFAMAWVRQAPTKGLEWVASISYGGADTYYRDSVKGRFTISRDNAKSSLYLQMDSLRSEDTSTYYCAKDLPYYGYTPFVMDAWGQGTSVTVSS
VL: DIMLTQSPPTLSVTPGETISLSCRASQRINTDLHWYQQKPNESPRVLIKFASQTISGVPSRFSGSGSGTDFTLNINRVEPEDFSVYYCQQSNSWPYTFGAGTKLELK
notes: also called r438-hIgG
For the molecule B2, the “Fold difference from rat 438” value in [2] amounted to 1 fold. In assay [3], the EC50 amounted to 2100 pM. The “IC50, human Notch1 reporter gene co-culture assay (DLL4-HEK293)” value in assay [4] came out at 650 pM. Also, in assay [5], the Kd is 4340 pM, the koff was determined as 0.000229 s⁻¹ and the kon was determined as 52700 M⁻¹ s⁻¹. In assay [6], the response was half-maximal at 4400 pM (EC50).

B3: parental rat 438 (antibody, V domains shown)
VH: AVQLVESGGGLVQPGRSLKLSCTASGFTFSSFAMAWVRQAPTKGLEWVASISYGGADTYYRDSVKGRFTISRDNAKSSLYLQMDSLRSEDTSTYYCAKDLPYYGYTPFVMDAWGQGTSVTVSS
VL: DIMLTQSPPTLSVTPGETISLSCRASQRINTDLHWYQQKPNESPRVLIKFASQTISGVPSRFSGSGSGTDFTLNINRVEPEDFSVYYCQQSNSWPYTFGAGTKLELK
notes: Rat monoclonal IgG from a hybridoma
In the case of B3, the EC50 in [7] is 213 pM; in [8], 172 pM.

B4: humanized 438 VH1.1/VL1.1 (antibody, human IgG1, V domains shown)
VH: EVQLVESGGGLVQPGGSLRLSCAASGFTFSSFAMAWVRQAPGKGLEWVASISYGGADTYYRDSVKGRFTISRDNAKNSLYLQMNSLRAEDTAVYYCAKDLPYYGYTPFVMDAWGQGTLVTVSS
VL: DIQLTQSPSSLSASVGDRVTITCRASQRINTDLHWYQQKPGKAPKVLIKFASQTISGVPSRFSGSGSGTDFTLTISSLQPEDFATYYCQQSNSWPYTFGQGTKLEIK
For the molecule B4, the EC50 was found to be 177 pM in [7], 129 pM in [8], 600 pM in [3] and 2400 pM in assay [6]. Moreover, in assay [2], the “Fold difference from rat 438” value was found to be 2.21 fold. Further, the “IC50, human Notch1 reporter gene co-culture assay (DLL4-HEK293)” value in assay [4] turned out to be 657 pM. Also, the Kd in [5] was 9650 pM and 9600 pM. The off-rate constant (koff) in [5] is 0.000422 s⁻¹. In addition, in assay [5], the kon was 43700 M⁻¹ s⁻¹.

B5: humanized 438 VH1.1/VL1.5 (antibody, human IgG1, V domains shown)
VH: EVQLVESGGGLVQPGGSLRLSCAASGFTFSSFAMAWVRQAPGKGLEWVASISYGGADTYYRDSVKGRFTISRDNAKNSLYLQMNSLRAEDTAVYYCAKDLPYYGYTPFVMDAWGQGTLVTVSS
VL: DIQMTQSPSSLSASVGDRVTITCRASQRINTDLHWYQQKPGKAPKLLIKFASQTISGVPSRFSGSGSGTDFTLTISSLQPEDFATYYCQQSNSWPYTFGQGTKLEIK
For B5, the EC50 in assay [7] is 219 pM; in assay [8], 146 pM; in [3], 7000 pM; in [6], 3300 pM. Besides, the “IC50, mouse Notch1 reporter gene co-culture assay (DLL4-HEK293)” value in [9] was 500 pM. For the same molecule, in [4], the “IC50, human Notch1 reporter gene co-culture assay (DLL4-HEK293)” value is 350 pM.

B6: humanized 438 VH1.1/VL1.9 (antibody, human IgG1, V domains shown)
VH: EVQLVESGGGLVQPGGSLRLSCAASGFTFSSFAMAWVRQAPGKGLEWVASISYGGADTYYRDSVKGRFTISRDNAKNSLYLQMNSLRAEDTAVYYCAKDLPYYGYTPFVMDAWGQGTLVTVSS
VL: DIMLTQSPSSLSASVGDRVTITCRASQRINTDLHWYQQKPGKAPKVLIKFASQTISGVPSRFSGSGSGTDFTLTISSLQPEDFATYYCQQSNSWPYTFGQGTKLEIK
Turning to B6, the EC50 in assay [7] is 178 pM; in assay [8], 137 pM; in [3] it was 400 pM; in assay [6] it was 2200 pM. Further, the “IC50, human Notch1 reporter gene co-culture assay (DLL4-HEK293)” value in [4] is 380 pM.

B7: humanized 438 VH1.0/VL1.8 (antibody, human IgG1, V domains shown)
VH: EVQLVESGGGLVQPGGSLRLSCAASGFTFSSFAMAWVRQAPGKGLEWVASISYGGADTYYRDSVKGRFTISRDNAKNSLYLQMNSLRAEDTAVYYCARDLPYYGYTPFVMDAWGQGTLVTVSS
VL: DIQMTQSPSSLSASVGDRVTITCRASQRINTDLHWYQQKPGKAPKVLIKFASQTISGVPSRFSGSGSGTDFTLTISSLQPEDFATYYCQQSNSWPYTFGQGTKLEIK
For the molecule B7, the EC50 in [3] turned out to be 2100 pM; in assay [6], 11600 pM. Moreover, the “IC50, mouse Notch1 reporter gene co-culture assay (DLL4-HEK293)” value in assay [9] came out at 1370 pM. Further, in assay [4], the “IC50, human Notch1 reporter gene co-culture assay (DLL4-HEK293)” value was 1870 pM.

B8: humanized 438 VH1.1/VL1.0 (antibody, human IgG1, V domains shown)
VH: EVQLVESGGGLVQPGGSLRLSCAASGFTFSSFAMAWVRQAPGKGLEWVASISYGGADTYYRDSVKGRFTISRDNAKNSLYLQMNSLRAEDTAVYYCAKDLPYYGYTPFVMDAWGQGTLVTVSS
VL: DIQMTQSPSSLSASVGDRVTITCRASQRINTDLHWYQQKPGKAPKLLIYFASQTISGVPSRFSGSGSGTDFTLTISSLQPEDFATYYCQQSNSWPYTFGQGTKLEIK
For the molecule B8, the EC50 was determined as 296 pM in [7], 144 pM in assay [8], 1100 pM in assay [3] and 2800 pM in assay [6]. For the same molecule, in assay [2], the “Fold difference from rat 438” value worked out at 5.02 fold. For the same molecule, in [4], the “IC50, human Notch1 reporter gene co-culture assay (DLL4-HEK293)” value is 460 pM. In addition, the Kd in assay [5] was 21800 pM. For the same molecule, the koff in assay [5] came to 0.00103 s⁻¹. Further, in [5], the kon was determined as 47400 M⁻¹ s⁻¹.

B9: humanized 438 VH1.0/VL1.1 (antibody, human IgG1, V domains shown)
VH: EVQLVESGGGLVQPGGSLRLSCAASGFTFSSFAMAWVRQAPGKGLEWVASISYGGADTYYRDSVKGRFTISRDNAKNSLYLQMNSLRAEDTAVYYCARDLPYYGYTPFVMDAWGQGTLVTVSS
VL: DIQLTQSPSSLSASVGDRVTITCRASQRINTDLHWYQQKPGKAPKVLIKFASQTISGVPSRFSGSGSGTDFTLTISSLQPEDFATYYCQQSNSWPYTFGQGTKLEIK
For B9, the EC50 in [7] was 305 pM; in assay [8], 229 pM; in assay [3] it was 700 pM; in [6], 4000 pM. In addition, the “Fold difference from rat 438” value in assay [2] was 1.47 fold. Besides, in assay [4], the “IC50, human Notch1 reporter gene co-culture assay (DLL4-HEK293)” value was determined as 1190 pM. Also, the Kd in assay [5] was 6420 pM and 6400 pM. Also, the koff in assay [5] was 0.000389 s⁻¹. The kon in assay [5] was determined as 60500 M⁻¹ s⁻¹.

What is called EC50 is the concentration at which the effect is half-maximal. As usually defined, the Kd is the free concentration of one partner at which half of the binding sites on the other are occupied at equilibrium, for simple one-to-one binding. For orientation: koff means the first-order rate constant of dissociation. For orientation: kon means a measure of how fast the partners come together.
